Data from patent publication US20100087625.
Positions count from the first letter of the chain named.

Assays:
[1] = tested on: T1, S1S2proBMP-2 (human proBMP-2 with S1 site REKR replaced by TNGIEGRALDP and S2 site RISR mutated to AISR; construct IND2372)
T1 sequence: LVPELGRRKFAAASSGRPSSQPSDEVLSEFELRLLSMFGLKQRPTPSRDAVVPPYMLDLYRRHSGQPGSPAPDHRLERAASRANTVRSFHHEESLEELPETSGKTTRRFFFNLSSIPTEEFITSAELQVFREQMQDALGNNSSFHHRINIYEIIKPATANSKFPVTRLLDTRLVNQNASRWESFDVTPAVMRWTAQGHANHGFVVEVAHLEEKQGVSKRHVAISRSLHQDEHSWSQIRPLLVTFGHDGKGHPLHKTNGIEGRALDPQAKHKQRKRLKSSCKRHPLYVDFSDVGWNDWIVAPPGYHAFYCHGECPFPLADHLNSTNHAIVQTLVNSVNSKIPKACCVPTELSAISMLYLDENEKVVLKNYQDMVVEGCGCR

[2] = tested on: T2, S1proBMP-2 (human proBMP-2 with the S1 furin cleavage site REKR replaced by TNGIEGRALDP; constructs IND2340 and IND2341)
T2 sequence: T1 sequence with A222R

[3] = tested on: T3, recombinant human proBMP-2 (wild type, produced by CHO-BMP-2 cells)
T3 sequence: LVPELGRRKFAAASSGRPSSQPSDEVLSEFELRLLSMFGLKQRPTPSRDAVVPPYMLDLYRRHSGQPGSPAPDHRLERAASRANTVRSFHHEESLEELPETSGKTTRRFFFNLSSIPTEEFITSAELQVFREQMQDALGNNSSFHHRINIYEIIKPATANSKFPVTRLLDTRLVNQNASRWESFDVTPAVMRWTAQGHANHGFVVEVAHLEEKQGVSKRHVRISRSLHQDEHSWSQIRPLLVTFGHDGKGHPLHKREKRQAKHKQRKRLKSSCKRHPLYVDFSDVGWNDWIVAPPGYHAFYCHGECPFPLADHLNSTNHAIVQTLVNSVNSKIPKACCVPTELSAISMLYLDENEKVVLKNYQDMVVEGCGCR

Row | Substance | Western blot after digestion with Factor Xa [1] | Western blot after digestion with Factor Xa [2] | Western blot after in vitro digestion with furin [3]
1 | Factor Xa (Restriction Protease Factor Xa Cleavage and Removal Kit, Roche Applied Science Cat #1 644 777) | Cleavage of mutant BMPs S1 proBMP and S1 S2proBMP-2 by Factor Xa produced a mature BMP-2 that remained a dimer under non-reducing conditions with an apparent molecular weight of 30-32 KD | Cleavage of mutant BMPs S1 proBMP and S1 S2proBMP-2 by Factor Xa produced a mature BMP-2 that remained a dimer under non-reducing conditions with an apparent molecular weight of 30-32 KD | –
2 | furin (Sigma) | – | – | the purified CHO proBMP-2 monomers migrated at approximately 55 kDa were cleaved after 1 hr incubation with furin
